In the supplement of paper PMC10567573:
± gives the standard deviation.

Assay: protein stability index of a GFP-peptide fusion (GPS, HEK-293T) (PSI 1-6); higher = more stable
Conditions: c terminus: a fixed tail appended
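Further: 24-mer peptide tiles fused after GFP, lentivirally expressed, FACS-sorted into six equal bins by GFP/DsRed ratio, decoded by Illumina sequencing, PSI is the read-weighted mean bin number.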

Sequence: GLCKQDGQLRVFGAGLLSSISELK [TPH1]
- protein stability index (treatment: DMSO): 2.05 ± 0.28
- protein stability index (treatment: MLN4924 1 uM, 8 h): 2.39 ± 0.4

Sequence: FPPEGNMEDKEMTGPQLPESLEDV [ZNF263]
- protein stability index (treatment: DMSO): 5.58 ± 0.21
- protein stability index (treatment: MLN4924 1 uM, 8 h): 5.48 ± 0.22

Sequence: TACAVIILTIICYLGLPRLEFYRY [SLC29A1]
- protein stability index (treatment: DMSO): 3.04 ± 0.18
- protein stability index (treatment: MLN4924 1 uM, 8 h): 3.1 ± 0.13

Sequence: EQLQQILKRKNKQAFLDELESSDL [MNAT1]
- protein stability index (treatment: DMSO): 3.48 ± 0.46
- protein stability index (treatment: MLN4924 1 uM, 8 h): 3.73 ± 0.39

Sequence: CEVIFCVFIFYYVVEEILELHIHR [PKD2L1]
- protein stability index (treatment: DMSO): 3 ± 0.52
- protein stability index (treatment: MLN4924 1 uM, 8 h): 3.07 ± 0.11

Sequence: GSVADTVARVLRGCLENMPEADCI [PLK2]
- protein stability index (treatment: DMSO): 2.88 ± 0.4
- protein stability index (treatment: MLN4924 1 uM, 8 h): 2.94 ± 0.33

Sequence: LGLLFERHWHRPVLMAVSVHSERK [SCNN1D]
- protein stability index (treatment: DMSO): 2.21 ± 0.23
- protein stability index (treatment: MLN4924 1 uM, 8 h): 2.33 ± 0.24

Sequence: AVLFTGIVALYIASGLTGFIGLEV [ATL3]
- protein stability index (treatment: DMSO): 3.49 ± 0.43
- protein stability index (treatment: MLN4924 1 uM, 8 h): 3.52 ± 0.35

Sequence: PGRRDEDAGEGIQCSQRMLSFSDA [TMEM175]
- protein stability index (treatment: DMSO): 5.07 ± 0.18
- protein stability index (treatment: MLN4924 1 uM, 8 h): 4.91 ± 0.3

Sequence: EAIQPYRDRLRSRLEALSTERDEI [TRIM15]
- protein stability index (treatment: DMSO): 4.61 ± 0.12
- protein stability index (treatment: MLN4924 1 uM, 8 h): 4.52 ± 0.14

Sequence: VKKCLELFSELAEDKENYKKFYEA [HSP90AB1]
- protein stability index (treatment: DMSO): 2.54 ± 0.34
- protein stability index (treatment: MLN4924 1 uM, 8 h): 2.74 ± 0.33

Sequence: QIYHCTKRKEEECSTTDHPYKKPY [TBX5]
- protein stability index (treatment: DMSO): 3.92 ± 0.095
- protein stability index (treatment: MLN4924 1 uM, 8 h): 4.25 ± 0.26

Sequence: PGDFDRNVPRICGVCGDRATGFHF [VDR]
- protein stability index (treatment: DMSO): 2.19 ± 0.13
- protein stability index (treatment: MLN4924 1 uM, 8 h): 2.64 ± 0.27

Sequence: EEDRPLGGGEGHQPAGNRRGQARR [BEX3]
- protein stability index (treatment: DMSO): 5.72 ± 0.14
- protein stability index (treatment: MLN4924 1 uM, 8 h): 5.563 ± 0.048

Sequence: FARNGALSTHNWTYWQCGQYLGVG [RSAD1]
- protein stability index (treatment: DMSO): 2.63 ± 0.66
- protein stability index (treatment: MLN4924 1 uM, 8 h): 2.17 ± 0.17

Sequence: NNDCRIYVGNLPPDIRTKDIEDVF [SRSF1]
- protein stability index (treatment: DMSO): 3.09 ± 0.31
- protein stability index (treatment: MLN4924 1 uM, 8 h): 3.3 ± 0.37

Sequence: KPKMNYEKLSRGLRYYYDKNIIHK [ETS2]
- protein stability index (treatment: DMSO): 2.48 ± 0.19
- protein stability index (treatment: MLN4924 1 uM, 8 h): 2.52 ± 0.38

Sequence: FFKGLVEAVESTLQTPLDIRLKES [TRIM14]
- protein stability index (treatment: DMSO): 2.15 ± 0.33
- protein stability index (treatment: MLN4924 1 uM, 8 h): 2.29 ± 0.28

Sequence: IVGIVEKGNRTARIIDKPRVIEVL [SEPHS2]
- protein stability index (treatment: DMSO): 2.56 ± 0.29
- protein stability index (treatment: MLN4924 1 uM, 8 h): 2.27 ± 0.49

Sequence: ATKKLGFKHPVIGVHVRRTDKVGT [FUT8]
- protein stability index (treatment: DMSO): 3.12 ± 0.091
- protein stability index (treatment: MLN4924 1 uM, 8 h): 3.15 ± 0.21

Sequence: HTTGPTGSAPNSPMALLTIGSSSE [TFE3]
- protein stability index (treatment: DMSO): 4.53 ± 0.12
- protein stability index (treatment: MLN4924 1 uM, 8 h): 4.54 ± 0.23

Sequence: DSASLPRKPSVPWQRQMDQPQDRN [RASAL3]
- protein stability index (treatment: DMSO): 4.65 ± 0.22
- protein stability index (treatment: MLN4924 1 uM, 8 h): 4.78 ± 0.23

Sequence: TQSDLYKKTQETLSQAGQKTSAAL [TPD52L2]
- protein stability index (treatment: DMSO): 4.88 ± 0.067
- protein stability index (treatment: MLN4924 1 uM, 8 h): 4.93 ± 0.21

Sequence: LGVRRPGGAGKEGVRVNNRFELIN [TCF25]
- protein stability index (treatment: DMSO): 3.05 ± 0.39
- protein stability index (treatment: MLN4924 1 uM, 8 h): 3.12 ± 0.43

Sequence: HRSYLGPGSTSPLETSGNPNGRYG [SLC6A17]
- protein stability index (treatment: DMSO): 4.27 ± 0.062
- protein stability index (treatment: MLN4924 1 uM, 8 h): 4.26 ± 0.29

Sequence: DYLTVKVWDLNMEARPIETYQVHD [PPP2R2C]
- protein stability index (treatment: DMSO): 2.69 ± 0.34
- protein stability index (treatment: MLN4924 1 uM, 8 h): 2.86 ± 0.16

Sequence: LQANDVFHKQQWFNCIRAAIAPFQ [NET1]
- protein stability index (treatment: DMSO): 2.14 ± 0.26
- protein stability index (treatment: MLN4924 1 uM, 8 h): 2.24 ± 0.28

Sequence: GEDEENREHRVRRIHVRRHITHDE [KCTD13]
- protein stability index (treatment: DMSO): 5.23 ± 0.2
- protein stability index (treatment: MLN4924 1 uM, 8 h): 5.1 ± 0.29

Sequence: EEEDREEEDENGLPRRRGLRKKKT [NEUROD6]
- protein stability index (treatment: DMSO): 5.53 ± 0.59
- protein stability index (treatment: MLN4924 1 uM, 8 h): 5.52 ± 0.37

Sequence: KGKQPTSAENSVAKKEDKVPVKKQ [NANOGP8]
- protein stability index (treatment: DMSO): 5.37 ± 0.32
- protein stability index (treatment: MLN4924 1 uM, 8 h): 5.44 ± 0.14

Sequence: LRPAKRELRGAEPGRPARLDQLLD [SPSB4]
- protein stability index (treatment: DMSO): 4.12 ± 0.2
- protein stability index (treatment: MLN4924 1 uM, 8 h): 4.03 ± 0.22

Sequence: EKVEVQLPELFHKIGVGAMTWSPL [KCNAB2]
- protein stability index (treatment: DMSO): 2.45 ± 0.26
- protein stability index (treatment: MLN4924 1 uM, 8 h): 2.51 ± 0.16
